Molecular target: IFN-receptor expressed by 38C13 cells (mouse (endogenous in 38C13)) (UniProt P33896)
Experiment: radioligand binding

UniProt P33896, sequence (P33896 27-590, chain 1 of 2): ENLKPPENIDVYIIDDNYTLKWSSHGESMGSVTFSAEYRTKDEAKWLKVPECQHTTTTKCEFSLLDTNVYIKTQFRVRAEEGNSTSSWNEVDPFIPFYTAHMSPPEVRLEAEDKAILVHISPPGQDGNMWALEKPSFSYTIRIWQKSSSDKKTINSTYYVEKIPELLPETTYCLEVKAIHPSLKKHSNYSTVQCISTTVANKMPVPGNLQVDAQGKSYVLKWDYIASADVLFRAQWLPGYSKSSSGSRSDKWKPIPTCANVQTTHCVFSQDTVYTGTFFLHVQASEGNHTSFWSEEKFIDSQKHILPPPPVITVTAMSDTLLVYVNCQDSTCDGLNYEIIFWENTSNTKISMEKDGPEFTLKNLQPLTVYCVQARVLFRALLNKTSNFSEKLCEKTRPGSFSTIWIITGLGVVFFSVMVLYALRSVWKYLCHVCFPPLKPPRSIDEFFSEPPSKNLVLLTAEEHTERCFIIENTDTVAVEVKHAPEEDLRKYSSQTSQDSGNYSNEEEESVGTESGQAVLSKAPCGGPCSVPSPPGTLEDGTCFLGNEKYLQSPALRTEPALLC
UniProt P33896, sequence (O35664 22-513, chain 2 of 2, further chain): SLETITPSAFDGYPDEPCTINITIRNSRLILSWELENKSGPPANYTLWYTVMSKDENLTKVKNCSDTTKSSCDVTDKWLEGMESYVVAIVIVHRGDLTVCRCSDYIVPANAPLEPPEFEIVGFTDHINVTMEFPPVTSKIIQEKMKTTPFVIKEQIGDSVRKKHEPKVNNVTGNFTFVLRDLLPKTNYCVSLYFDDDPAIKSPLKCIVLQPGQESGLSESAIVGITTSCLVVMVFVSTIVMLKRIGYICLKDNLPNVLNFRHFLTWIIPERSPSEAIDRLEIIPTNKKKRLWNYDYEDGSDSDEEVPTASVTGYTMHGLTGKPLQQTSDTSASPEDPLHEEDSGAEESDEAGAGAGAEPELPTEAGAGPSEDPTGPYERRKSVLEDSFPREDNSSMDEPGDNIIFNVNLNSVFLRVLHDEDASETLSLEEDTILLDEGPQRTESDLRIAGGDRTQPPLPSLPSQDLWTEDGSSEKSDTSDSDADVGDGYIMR

percent cell-bound activity: 44.6%
Substance: anti-CD20 rituximab-murine IFNα1 fusion protein (from UniProt P01572 24-189)
